Laboratory results as given in patent US20110263454A1, “Methods of Identifying Functional Characteristics of Promoters, Transcription Modifying Proteins and Transcription Modulating Agents” (Salk Institute for Biological Studies, priority 2008, published 2011).

Key:
hCYP3A4 promoter = assay: NHR-promoter luciferase screen, hCYP3A4 promoter; assay type: cell-based, human; details: for Luc. act., normalized to lacZ / Normalized Luc. act., normalized to control: CYP3A4 promoter, HR/ligand component; for hCYP3A4 promoter reporter activity: transcription factor +/- ligand, control = 1.00
Procedure, shortened: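 Luciferase reporter read-out after co-expression in CV-1 cells of V5H6-tagged receptor (alone or with RXR), the promoter construct and LacZ. Values are luciferase/LacZ relative to a control lacking NHR or ligand; orphan receptors tested ligand-free.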

hG6PD promoter = assay: NHR-promoter luciferase screen, hG6PD promoter; assay type: cell-based, human; details: for Luc. act., normalized to lacZ / Normalized Luc. act., normalized to control: G6PD promoter reporter, co-transfected HR, without or with its ligand; for Normalized Luc. act., normalized to control: relative to control; for luciferase activity normalized to lacZ activity and to a control, hG6PD: hG6PD promoter-luciferase, CV-1 cells, NHR +/- ligand, control = 1.00
Procedure, shortened: (§1)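 CV-1 cells were co-transfected with 50 ng NHR (homodimer or NHR/RXR heterodimer), 100 ng promoter-luciferase construct and 50 ng LacZ. Luciferase was normalized to LacZ and to a no-NHR/no-ligand control.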

hIRF7 promoter = assay: NHR-promoter luciferase screen, hIRF7 promoter; assay type: cell-based, human; details: for Normalized Luc. act., normalized to control / Luc. act., normalized to lacZ: IRF7 promoter reporter; for Normalized Luc. act., normalized to control: HR without or with its ligand, relative to control; for Luc. act., normalized to lacZ: hormone receptor (HR) without or with its ligand; for hIRF7 promoter reporter activity: transcription factor +/- ligand, control = 1.00
Procedure, shortened: as §1

RevErba promoter = assay: NHR-promoter luciferase screen, RevErba (RVRa) promoter; assay type: cell-based; parameters: key to mRevErba promoter reporter activity / Normalized Luc. act., normalized to control: luciferase activity normalized to lacZ and to control (no NHR/ligand); details: for Luc. act., normalized to lacZ / Normalized Luc. act., normalized to control / normalized Luc. act. on a logarithmic scale (column without head, Table 33) / negative reciprocal of normalized Luc. act. (fold repression; Table 33): RVRa promoter; for Luc. act., normalized to lacZ / Normalized Luc. act., normalized to control: HR component without or with ligand; for normalized Luc. act. on a logarithmic scale (column without head, Table 33): log10 of activity normalized to control; for mRevErba promoter reporter activity: transcription factor +/- ligand, control = 1.00; for negative reciprocal of normalized Luc. act. (fold repression; Table 33): given only where activity is below control
Procedure, shortened: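 Reporter readout: RevErbα promoter-driven luciferase, corrected for LacZ transfection efficiency and expressed relative to a no-receptor or no-ligand control. Receptors (V5H6-tagged, pcDNA3.1), alone or with RXR, plus any ligand, were expressed in CV-1 cells.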

hTNFa promoter = assay: NHR-promoter luciferase screen, hTNFa promoter; assay type: cell-based, human; details: for Luc. act., normalized to lacZ / Normalized Luc. act., normalized to control: TNFa promoter, HR component without or with ligand; for hTNFa promoter reporter activity: transcription factor +/- ligand, control = 1.00
Procedure, shortened: as §1

mUCP2 promoter = assay: NHR-promoter luciferase screen, mUCP2 promoter; assay type: cell-based, mouse; details: for Luc. act., normalized to lacZ / Normalized Luc. act., normalized to control: mUCP2 promoter reporter, co-transfected HR, with or without its ligand; for Normalized Luc. act., normalized to control: relative to control; for luciferase activity normalized to lacZ activity and to a control, mUCP2: mUCP2 promoter-luciferase, CV-1 cells, NHR +/- ligand, control = 1.00
Procedure, shortened: as §1

| Molecule | Luc. act., normalized to lacZ (hCYP3A4 promoter) | Normalized Luc. act., normalized to control (hCYP3A4 promoter) | hCYP3A4 promoter reporter activity (hCYP3A4 promoter) | Luc. act., normalized to lacZ (hG6PD promoter) | Normalized Luc. act., normalized to control (hG6PD promoter) | luciferase activity normalized to lacZ activity and to a control, hG6PD (hG6PD promoter) | Normalized Luc. act., normalized to control (hIRF7 promoter) | Luc. act., normalized to lacZ (hIRF7 promoter) | hIRF7 promoter reporter activity (hIRF7 promoter) | Luc. act., normalized to lacZ (RevErba promoter) | Normalized Luc. act., normalized to control (RevErba promoter) | normalized Luc. act. on a logarithmic scale (column without head, Table 33) (RevErba promoter) | mRevErba promoter reporter activity (RevErba promoter) | Luc. act., normalized to lacZ (hTNFa promoter) | Normalized Luc. act., normalized to control (hTNFa promoter) | hTNFa promoter reporter activity (hTNFa promoter) | Luc. act., normalized to lacZ (mUCP2 promoter) | Normalized Luc. act., normalized to control (mUCP2 promoter) | luciferase activity normalized to lacZ activity and to a control, mUCP2 (mUCP2 promoter) | negative reciprocal of normalized Luc. act. (fold repression; Table 33) (RevErba promoter) |
| --- | --- | --- | --- | --- | --- | --- | --- | --- | --- | --- | --- | --- | --- | --- | --- | --- | --- | --- | --- | --- |
| RORb: RAR-related Orphan Receptor β (NR1F2), cDNA driver (protein, UniProt Q92753 1-470, looked up) Nuclear receptor ROR-beta: MCENQLKTKADATAQIEVIPCKICGDKSSGIHYGVITCEGCKGFFRRSQQNNASYSCPRQRNCLIDRTNRNRCQHCRLQKCLALGMSRDAVKFGRMSKKQRDSLYAEVQKHQQRLQEQRQQQSGEAEALARVYSSSISNGLSNLNNETSGTYANGHVIDLPKSEGYYNVDSGQPSPDQSGLDMTGIKQIKQEPIYDLTSVPNLFTYSSFNNGQLAPGITMTEIDRIAQNIIKSHLETCQYTMEELHQLAWQTHTYEEIKAYQSKSREALWQQCAIQITHAIQYVVEFAKRITGFMELCQNDQILLLKSGCLEVVLVRMCRAFNPLNNTVLFEGKYGGMQMFKALGSDDLVNEAFDFAKNLCSLQLTEEEIALFSSAVLISPDRAWLIEPRKVQKLQEKIYFALQHVIQKNHLDDETLAKLIAKIPTITAVCNLHGEKLQVFKQSHPEIVNTLFPPLYKELFNPDCATGCK | 2.5 | 0.6 | 0.56 | 51.1 | 1.4 | 1.37 | 1.6 | 40.9 | 1.55 | 29.93 | 1.1 | 0.03 | 1.07 | 1029.5 | 1.0 | 1.05 | 176.2 | 1.6 | 1.60 | – |
| RXRb: Retinoic X Receptor β (NR2B2), cDNA driver (protein, UniProt P28702 1-533, looked up) Retinoic acid receptor …: MSWAARPPFLPQRHAAGQCGPVGVRKEMHCGVASRWRRRRPWLDPAAAAAAAVAGGEQQTPEPEPGEAGRDGMGDSGRDSRSPDSSSPNPLPQGVPPPSPPGPPLPPSTAPSLGGSGAPPPPPMPPPPLGSPFPVISSSMGSPGLPPPAPPGFSGPVSSPQINSTVSLPGGGSGPPEDVKPPVLGVRGLHCPPPPGGPGAGKRLCAICGDRSSGKHYGVYSCEGCKGFFKRTIRKDLTYSCRDNKDCTVDKRQRNRCQYCRYQKCLATGMKREAVQEERQRGKDKDGDGEGAGGAPEEMPVDRILEAELAVEQKSDQGVEGPGGTGGSGSSPNDPVTNICQAADKQLFTLVEWAKRIPHFSSLPLDDQVILLRAGWNELLIASFSHRSIDVRDGILLATGLHVHRNSAHSAGVGAIFDRVLTELVSKMRDMRMDKTELGCLRAIILFNPDAKGLSNPSEVEVLREKVYASLETYCKQKYPEQQGRFAKLLLRLPALRSIGLKCLEHLFFFKLIGDTPIDTFLMEMLEAPHQLA | 0.3 | 0.1 | 0.06 | 23.1 | 0.6 | 0.62 | 0.3 | 8.9 | 0.34 | 17.38 | 0.6 | −0.21 | 0.62 | 1036.3 | 1.1 | 1.05 | 87.7 | 0.8 | 0.80 | −1.609 |
| CAR: Constitutive Androstane Receptor (NR1I3), cDNA driver (protein, UniProt Q14994 1-352, looked up) Nuclear receptor subfamily 1 …: MASREDELRNCVVCGDQATGYHFNALTCEGCKGFFRRTVSKSIGPTCPFAGSCEVSKTQRRHCPACRLQKCLDAGMRKDMILSAEALALRRAKQAQRRAQQTPVQLSKEQEELIRTLLGAHTRHMGTMFEQFVQFRPPAHLFIHHQPLPTLAPVLPLVTHFADINTFMVLQVIKFTKDLPVFRSLPIEDQISLLKGAAVEICHIVLNTTFCLQTQNFLCGPLRYTIEDGARVSPTVGFQVEFLELLFHFHGTLRKLQLQEPEYVLLAAMALFSPDRPGVTQRDEIDQLQEEMALTLQSYIKGQQRRPRDRFLYAKLLGLLAELRSINEAYGYQIQHIQGLSAMMPLLQEICS | 3.1 | 0.7 | 0.70 | 46.4 | 1.2 | 1.24 | 1.4 | 37.3 | 1.42 | 40.00 | 1.4 | 0.16 | 1.43 | 908.2 | 0.9 | 0.92 | 151.6 | 1.4 | 1.38 | – |
| RXRg: Retinoic X Receptor γ (NR2B3), cDNA driver (protein, UniProt P48443 1-463, looked up) Retinoic acid receptor …: MYGNYSHFMKFPAGYGGSPGHTGSTSMSPSAALSTGKPMDSHPSYTDTPVSAPRTLSAVGTPLNALGSPYRVITSAMGPPSGALAAPPGINLVAPPSSQLNVVNSVSSSEDIKPLPGLPGIGNMNYPSTSPGSLVKHICAICGDRSSGKHYGVYSCEGCKGFFKRTIRKDLIYTCRDNKDCLIDKRQRNRCQYCRYQKCLVMGMKREAVQEERQRSRERAESEAECATSGHEDMPVERILEAELAVEPKTESYGDMNMENSTNDPVTNICHAADKQLFTLVEWAKRIPHFSDLTLEDQVILLRAGWNELLIASFSHRSVSVQDGILLATGLHVHRSSAHSAGVGSIFDRVLTELVSKMKDMQMDKSELGCLRAIVLFNPDAKGLSNPSEVETLREKVYATLEAYTKQKYPEQPGRFAKLLLRLPALRSIGLKCLEHLFFFKLIGDTPIDTFLMEMLETPLQIT | 0.9 | 0.2 | 0.19 | 43.7 | 1.2 | 1.17 | 1.0 | 27.4 | 1.04 | 24.64 | 0.9 | −0.05 | 0.88 | 1025.0 | 1.0 | 1.04 | 144.4 | 1.3 | 1.31 | −1.135 |
